Assay [1] addresses T1, IL-13RA2 huFc (human).
T1 construct: Expressed in 293F cells, purified on protein A; also called human IL13RA2; recombinant IL-13RA2
Description: Biacore, induced supernatant of the scFv clone; parent 31C2.

The target in assay [2] is T1, IL-13RA2 huFc. Description: SPR (Biacore), induced scFv supernatant; column head: Dissociation constant Kd(S-1).
The next assay concerns the target T2, Murine IL-13RA2 (murine, UniProt O88786 22-334, limits assumed).
T2 construct: Bought recombinant protein; coated on the ELISA plate at 5 ug/ml
T2 sequence (looked up): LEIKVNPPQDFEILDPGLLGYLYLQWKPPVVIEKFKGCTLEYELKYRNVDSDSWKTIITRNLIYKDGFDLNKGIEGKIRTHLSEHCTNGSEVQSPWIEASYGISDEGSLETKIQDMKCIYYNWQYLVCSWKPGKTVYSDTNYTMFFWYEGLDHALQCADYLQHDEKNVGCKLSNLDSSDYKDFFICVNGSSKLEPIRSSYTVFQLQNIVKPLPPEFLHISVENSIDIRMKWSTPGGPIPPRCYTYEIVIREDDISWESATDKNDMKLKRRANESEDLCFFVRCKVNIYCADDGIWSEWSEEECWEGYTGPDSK
As to the kind of experiment: ELISA by the method of Example 3, antibody concentration not given; bars assigned by their order in the legend. The protocol:
(§1) The species specificity of antibodies 31C2 and 32H4 was determined by standard ELISA. Murine IL-13RA2 was purchased from Sino Biological Inc. The ELISA plate was coated with 100 ul of 5 ug/ml murine IL-13RA2 per well at 4° C. overnight. The coated ELISA plate was washed with PBS three times. 200 ul solution of 2% skim milk powder in PBS per well was added for blocking at room temperature for 1 hour. The plate was washed with PBS three times. The gradiently diluted antibodies with a starting concentration of 10 μg/ml, 3-fold serially diluted, were added and incubated at room temperature for 1 hr. The mixture was washed with PBST three times and washed with PBS three times. HRP-labeled goat anti-human Fc was added and incubated at room temperature for 1 hour. The mixture was washed with PBST three times and washed with PBS three times. After TMB was added for color development for 15 minutes, and the reaction was stopped by the addition of sulfuric acid, and read on a microplate reader.
(§2) The specificity of the antibodies 5D7, 2C7, 5G3, 2D4, 2D3 and 1B11 was determined by standard ELISA following the method of Example 3. The results were shown as in FIG. 10B.

For another assay, the target named is T3, IL-13RA1_huFc (human).
T3 construct: IL-13RA1 extracellular segment, 'GS', Fc segment Asp104-Lys330 of the human IgG1 heavy chain constant region; also called human IL13RA1
T3 sequence (chain, as listed by the source limits assumed): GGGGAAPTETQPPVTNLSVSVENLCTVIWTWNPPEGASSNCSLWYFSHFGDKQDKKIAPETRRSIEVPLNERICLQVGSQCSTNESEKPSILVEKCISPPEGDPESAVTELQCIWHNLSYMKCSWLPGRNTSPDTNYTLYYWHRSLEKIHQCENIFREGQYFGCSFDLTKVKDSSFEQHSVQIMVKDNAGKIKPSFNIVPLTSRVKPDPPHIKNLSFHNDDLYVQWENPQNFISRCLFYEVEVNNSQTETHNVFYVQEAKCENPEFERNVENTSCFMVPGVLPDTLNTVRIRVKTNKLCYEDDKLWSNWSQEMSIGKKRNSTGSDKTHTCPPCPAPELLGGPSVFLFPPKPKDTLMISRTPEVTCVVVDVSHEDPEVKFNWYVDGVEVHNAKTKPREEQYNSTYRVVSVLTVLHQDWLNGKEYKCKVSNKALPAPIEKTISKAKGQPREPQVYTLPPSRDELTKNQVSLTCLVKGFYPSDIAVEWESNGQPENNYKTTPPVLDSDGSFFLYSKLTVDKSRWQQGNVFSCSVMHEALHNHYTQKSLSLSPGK
The assay is described as above. The protocol: as §1, §2

Assay [3] has as its target T1, IL-13RA2 huFc. Description: SPR (Biacore T200), nickel-purified scFv. Here is the method: IL-13RA2 huFc was coated on the CMS chip by amino coupling, coated to about 500 RU, and the gradiently diluted antibodies were passed through the antigen-coated channel at a flow rate of 30 ul/min as a mobile phase. The running buffer was HBS-N and the temperature was 25° C. The experimental data was analyzed by BIAevaluation 3.2 and the kinetic curves were fitted using a 1:1 langmuir model.
Affinity purification was performed using a nickel column, affinity was measured using biacore T200, and the association and dissociation constants of the affinity matured antibodies are shown as in FIG. 10A.
For orientation: In SPR one partner is held on a chip, and binding of the other changes the refractive index at the surface.

In assay [4] the target is T1, IL-13RA2 huFc. As to the kind of experiment: Biacore, induced supernatant of the scFv clone; parent 32H4.

For orientation: koff means a measure of how fast the partners let go of each other. The Kd is the free concentration of one partner at which half of the binding sites on the other are occupied at equilibrium, for simple one-to-one binding. Lower therefore signals a tighter complex. What is called kon is a measure of how fast the partners come together.

T1 sequence (chain, as listed by the source limits assumed): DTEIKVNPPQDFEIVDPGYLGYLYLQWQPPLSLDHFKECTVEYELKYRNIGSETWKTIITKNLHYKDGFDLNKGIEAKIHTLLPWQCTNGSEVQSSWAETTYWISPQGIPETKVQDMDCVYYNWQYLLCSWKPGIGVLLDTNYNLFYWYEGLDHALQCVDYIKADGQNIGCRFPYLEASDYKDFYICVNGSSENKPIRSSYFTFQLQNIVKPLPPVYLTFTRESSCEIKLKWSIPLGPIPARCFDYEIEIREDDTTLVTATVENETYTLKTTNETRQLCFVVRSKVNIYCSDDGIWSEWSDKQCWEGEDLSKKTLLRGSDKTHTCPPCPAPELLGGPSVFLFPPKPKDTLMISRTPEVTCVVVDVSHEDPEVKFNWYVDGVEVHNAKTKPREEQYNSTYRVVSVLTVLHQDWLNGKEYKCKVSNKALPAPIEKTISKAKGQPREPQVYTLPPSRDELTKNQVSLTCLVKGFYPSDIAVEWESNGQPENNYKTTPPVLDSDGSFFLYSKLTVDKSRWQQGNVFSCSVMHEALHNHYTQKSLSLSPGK

B1: 1B11 (scFv) (scFv)
scFv: EVQLLESGGGLVQPGGSLRLSCAASGFTFSRDALNWVRQAPGKGLEWVSAISGSGGSTFYADSVKGRFTISRDNSKNTLYLQMNSLRAEDTAVYYCAKVRYGWGAGAFDYWGQGTLVTVSSGGGGSGGGGSGGGGSDIQMTQSPSTLSASVGDRVTITCRASQSISSWLAWYQQKPGKAPKLLIYDASSLESGVPSRFSGSGSGTEFTLTISSLQPDDFATYYCQQYDTYPPITFGQGTKVEIK
notes: also called clone 1B11
In the case of B1, the “fold lower dissociation constant Kd than the parent clone” value with IL-13RA2 huFc [1] is greater than 10 times. The molecule further gave a koff with IL-13RA2 huFc [2] of 0.000736 s⁻¹. Besides, the binding result with Murine IL-13RA2 was “binds”. In the assay with IL-13RA1_huFc, the binding result is “no binding”. In the assay with IL-13RA2 huFc [3], this molecule registered a Kd of 17.5 nM, a koff of 0.000803 s⁻¹ and a kon of 46000 M⁻¹ s⁻¹.

B2: 2D4 (scFv) (scFv)
scFv: EVQLLESGGGLVQPGGSLRLSCAASGFTFRKYAMGWVRQAPGKGLEWVSGISGSVGSTYYADSVKGRFTISRDNSKNTLYLQMNSLRAEDTAVYYCAKVRYGWGAGAFDYWGQGTLVTVSSGGGGSGGGGSGGGGSDIQMTQSPSTLSASVGDRVTITCRASQSISSWLAWYQQKPGKAPKLLIYDASSLESGVPSRFSGSGSGTEFTLTISSLQPDDFATYYCQQYDTYPPITFGQGTKVEIK
notes: also called clone 2D4
B2: the “fold lower dissociation constant Kd than the parent clone” value with IL-13RA2 huFc [1] was greater than 10 times. In the assay with IL-13RA2 huFc [2], this molecule displayed a koff of 0.000837 s⁻¹. The binding result with Murine IL-13RA2 is on record as “binds”. Besides, the binding result with IL-13RA1_huFc is on record as “no binding”. Besides, in the assay with IL-13RA2 huFc [3], the Kd is 8.92 nM, the koff stood at 0.000745 s⁻¹ and the kon turned out to be 83500 M⁻¹ s⁻¹.

B3: 5D7 (scFv) (scFv)
scFv: EVQLLESGGGLVQPGGSLRLSCAASGFTFSNYAMSWVRQAPGKGLEWVSGIRSSGGRTFYADSVKGRFTISRDNSKNTLYLQMNSLRAEDTAVYYCARVAFSGSFDYWGQGTLVTVSSGGGGSGGGGSGGGGSDIQMTQSPSTLSASVGDRVTITCRASQSISSWLAWYQQKPGKAPKLLIYDASSLESGVPSRFSGSGSGTEFTLTISSLQPDDFATYYCQQRNRYPPTFGQGTKVEIK
notes: also called clone 5D7
In the case of B3, the “fold lower dissociation constant Kd than the parent clone” value in the assay with IL-13RA2 huFc [4] was greater than 10 times. The molecule also yielded a koff in the assay with IL-13RA2 huFc [2] of 0.00154 s⁻¹. In the assay with IL-13RA2 huFc [3], the Kd was determined as 5.4 nM, the koff came out at 0.000443 s⁻¹ and the kon amounted to 82200 M⁻¹ s⁻¹.

B4: 5G3 (scFv) (scFv)
scFv: EVQLLESGGGLVQPGGSLRLSCAASGFTFSSYVLSWVRQAPGKGLEWVSAIRGSAGNTYYADSVKGRFTISRDNSKNTLYLQMNSLRAEDTAVYYCARVAFSGSFDYWGQGTLVTVSSGGGGSGGGGSGGGGSDIQMTQSPSTLSASVGDRVTITCRASQSISSWLAWYQQKPGKAPKLLIYDASSLESGVPSRFSGSGSGTEFTLTISSLQPDDFATYYCQQRNRYPPTFGQGTKVEIK
notes: also called clone 5G3
B4: the “fold lower dissociation constant Kd than the parent clone” value with IL-13RA2 huFc [4] was greater than 10 times. The koff with IL-13RA2 huFc [2] is 0.000941 s⁻¹. In the assay with IL-13RA2 huFc [3], this molecule registered a Kd of 8.34 nM, a koff of 0.000586 s⁻¹ and a kon of 70300 M⁻¹ s⁻¹.

(Values after US20190359723A1 (CARSGEN THERAPEUTICS, published 2019).)
